Measured values from PMC10355822.
“And” between values parts separate entries of the source, which are not always exact repeats. Equal entries are not always repeated.

Assays:
[1] = target: M. polysiphoniae SPARTA (MapSPARTA) complex of MapAgo and MapTIR-APAZ (Maribacter polysiphoniae); test: cryo-EM structure
[2] = target: M. polysiphoniae SPARTA (MapSPARTA) complex of MapAgo and MapTIR-APAZ (Maribacter polysiphoniae); test: mass photometry
[3] = target: M. polysiphoniae SPARTA (MapSPARTA) complex of MapAgo and MapTIR-APAZ (Maribacter polysiphoniae); test: cryo-EM structure; remark: listed apart in the source

Q: For “M. polysiphoniae SPARTA (MapSPARTA) complex of MapAgo and MapTIR-APAZ”, which stoichiometry N [1] is on record?
A: 4

Q: And the stoichiometry N [2]?
A: 2 and 4

Q: What about the stoichiometry N [3] of the same substance?
A: 2
